The target in the assay is rat cardiac troponin I (cTnI), Ser22/23 bisphosphorylated (rat, UniProt P23693 1-211, phosphoserine at 22 and 23). Nature of the assay: SEC-MALS. On the technique in general: In gel filtration, larger molecules generally elute earlier.

B1: rat cardiac troponin T (cTnT) (natural protein)
chain: not shown
On to B1, for which the “stoichiometry N” value came out at 1.

For orientation: stoichiometry N means a count of units in the complex or per binding partner.

For the origin of these results see PMC9826837 (The Journal of Biological Chemistry, 2022).
